Here are results for 1 substance from paper PMC2975675.

In one assay the target is GST-Rabin8-F201A (human). Description: pull-down.
In the next assay the target is GST-Rabin8-L196A (human). As to the kind of experiment: pull-down.

As for “Rab8a (in vitro translated Rab8A-T22N or Rab8A-Q67L) (from UniProt P61006 1-207) (natural protein)”, the percent decrease of association against wild-type GST-Rabin8 with GST-Rabin8-F201A (human) worked out at 52%; with GST-Rabin8-L196A (human) it was 39%.
